# Results as given in the nanobody polyreactivity screen of Harvey et al. (2022).
# Test: yeast display, Sf9 membrane polyspecificity reagent, FACS + sequencing; frameworks hold sequencing errors
# Summary of the method: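 A synthetic nanobody library was expressed on Saccharomyces cerevisiae BJ5465 by galactose induction for 36–48 hours. The library was stained for 1 hour at 4 °C with 10% biotinylated, detergent-solubilized Sf9 membrane reagent and enriched with streptavidin microbeads before FACS. Low and high (top ~1%) gates were set on anti-HA fluorescence for expression and streptavidin fluorescence for reagent binding, and each polyreactivity label reflects the gate of origin.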
row,Sequence,polyreactivity (PSR sort gate)
1,QVQLVESGGGLVQAGGSLRLTCAASGRIFWINDMVWNRQAPGKESELVAAIRSIGGSTYYADSVKGRFRISRDNAKNTVYLQMNSLKPEDTSVYYCAAKSSPKFRGRYYYWGQGTQVTVSS,low polyreactivity
2,QVQLVESGGGLVQAGGSLRLTCAASGRIFWRNAMGWYRQAPGKVREFVAAITGTGGSTYYADSVKGRFTISRDTAKNTVYLQMNSLKPEDTAVYYCAARWDYSYRYRLYYWGQGTQVTVSS,high polyreactivity
3,QVQLVESGGGLVQAGGSLRLTCAASGRTFAIYAMGWYRQAPRKEREFFDAISWSGGDTYYADSVKGRFTISRDNAKNTVYLQMNSLKAEDTAVYYCAARYIDYEGRDLQYELDYWGQGTQVSVSS,low polyreactivity
4,QVQLVESGGGLVQAGGSLRLTCAASGRTFAWYAMGWYRQAPGKERDLVAAISSAGSTYYADSVKGRFTISRDNAKNTVYLQMNSLKPEDTAVYYCAASFGRYTSGTYYYWGQGTQVTVSS,high polyreactivity
5,QVQLVESGGGLVQAGGSLRLTCAASGRTFDYYAMGWYRQAPGKERELVAAIRGSGGSTYYADSVKGRFTISRDNAKNTVYLQMNSLKPEDTAVYYCATDPPYFRTPWEYDYWGQGTQVTVSS,low polyreactivity
6,QVQLVESGGGLVQAGGSLRLTCAASGRTFGRYAMGWYRQAPGKEMDLVAAIRYTGGSTYADSVKGRFTISRDNAKNTVYLQMNRLKPEETAVYYCNRCGAFNTRNEITRYGYWGQGTQVTVSS,low polyreactivity
7,QVQLVESGGGLVQAGGSLRLTCAASGRTFGTYVMGWYIQAPGKERELVATISRRGGTTYYADSVKGRFTISRDNAKNTVYLQMNSLKPVDNAVYYCAATYFGTRYDYWGQGTQVTVSS,high polyreactivity
8,QVQLVESGGGLVQAGGSLRLTCAASGRTFLLYAMGWYRQAPGKERELVAAITSRSGRTYYADSVKGRFTISRDNAKNTVYLQMNSLKPEDTAVYYCAAQGYAPQEYEYWGQGTQVTVSS,high polyreactivity
9,QVQLVESGGGLVQAGGSLRLTCAASGRTFNDYAMGWYRQAPGKEMELVAGITWRGGSTYYADSVKGRFTISRHNAKNTVYLQMNSLKPEDTAVYYCAVKRPWRKMGYWGQGTQVTVSS,high polyreactivity
10,QVQLVESGGGLVQAGGSLRLTCAASGRTFQYYAMGWYRQAPGKERELVAAISQDGGSTYYADSVKGRFTISRDNSKNSVYLQMNSLKPEDTAVYYCAARVDEYAYYALDDYWGQGTQVTVSS,low polyreactivity
11,QVQLVESGGGLVQAGGSLRLTCAASGRTFSYYTIGWYRQAPGKELELVADITGSGGSTYYADSVKGRFTISRDNAKNTVYLQINSLKPEDTAVYYCSAGWPYVYYTWYWTMDYWGQGTQVTVSS,high polyreactivity
12,QVQLVESGGGLVQAGGSLRLTCAASGRTFTIYAMGWYRQAPGKERELVAAISSSSGSTYYADSVKGRFPISRDNAKNTVYLQKNSLKPEDTAVYYCAVKLSGQAAQRRYDYWGQGTQVTVSS,high polyreactivity
13,QVQLVESGGGLVQAGGSLRLTCAASGRTFTRYAMGWYRQAPGKERELVAAISGGGGSTYYADSVKGRFTISRDNAKNTVYLQMNSLKPEDTAVYYCNAAARGSSFDYWGQGTQVTVSS,low polyreactivity
14,QVQLVESGGGLVQAGGSLRLTCAASGRTFWTNAMGWYRQAPGKVRELVAAIRNSGGRTYYADSVKGRFTISRDNAKNTVYLQMNSLKPEDTAVYYCNADFWYSYGYDYWGQGTQVTVSS,low polyreactivity
15,QVQLVESGGGLVQAGGSLRLTCAASGRTFYLYAMGWYRQAPGKERELVAAITTSGGSTYYADSVKGRFTFSRDNAKNTVYLQMNSLKPEDTAVSYCNTDLSSTKFDYWGQGTQVTVSS,low polyreactivity
16,QVQLVESGGGLVQAGGSLRLTCAASGRTYRKNAMGWYRQAPGKETELVAAITGSSGTTYYADSVKARFTISRDNAKISVYFQMNSLKPEDTAVYYCATTVCDPGRRYYYWGLGTQVTVSS,high polyreactivity
17,QVQLVESGGGLVQAGGSLRLTCAASGSIFGDYAMGWYRQAPGKEREFVAGITRRGGRTYYADSVKGRFTISRDNAKNTVYLQMNSLKPEDTAVYYCNAVYSSSLRSKYDYWGQGTQVTVSS,high polyreactivity
18,QVQLVESGGGLVQAGGSLRLTCAASGSIFGFNAMGWYRQAPGKERELGAAISSGSTYYADSVKGRFTISRDNAKNTVYLQINSLKPEDTAVYYCNARSNRGRFEYWGQGTQVTESS,low polyreactivity
19,QVQLVESGGGLVQAGGSLRLTCAASGSIFLYYAMGWYRQAPGKERELVAGINRVGSTNYADSVKGRFTISRDNAKNTVNLQMNSLKPEDTAVYYCNKRATRSRRRGYWGQGTQVTVSS,low polyreactivity
20,QVQLVESGGGLVQAGGSLRLTCAASGSIFNRYSMGWYRQATGKERELVAVIRWRDGSTYYADSVKGRFTISRDNEKNTVYLQMNSLKPEDTAVYYCAAVYWGEEYEYWGQGTQVTVSS,low polyreactivity
21,QVQLVESGGGLVQAGGSLRLTCAASGSIFPYYAMGWYRQAPGKEREFVAVISRRGGSTYYADSVKGRFTISRDNAKNTVYLQMNSLKPEDTAVYYCNARGYNLLDDWGQGTQVTVSS,high polyreactivity

row,Sequence,polyreactivity (PSR sort gate)
1,QVQLVESGGGLVQAGGSLRLTCAASGSIFRVNAMGWYRQAPGKERELVAAISSGGSTHYADSVKGRFTMSRDNAKNTVYLLMNSLKPEDTAVYYCAVRGERRYIYDYWGQGTQVTVSS,high polyreactivity
2,QVQLVESGGGLVQAGGSLRLTCAASGSIFRWNAMGWYRQAPGKERELVASITSGGSTYYADSVKGRFTISRDNAKNTVYLQMISLKPEDTAVYYCAAARYPGRKFDYWGQGTQVTVSS,high polyreactivity
3,QVQLVESGGGLVQAGGSLRLTCAASGSIFTYYVMGWYRQAPGKERELVATITGSSGSTYYADSVKGRFTISRDNAKNTVFLQMNSLKPEDTAVYYCATYGTLVYYYYPDMEYWGQGTQVTVSS,low polyreactivity
4,QVQLVESGGGLVQAGGSLRLTCAASGSIFVRNSMGWYRQAPGKERELVAAIIRSGGSTYYADSVKGRFTISRDNAKNTVYLQMNSLKPEDTAVYYCNALIRYNRYTGRDYWGQGTQVTVSS,high polyreactivity
5,QVQLVESGGGLVQAGGSLRLTCAASGSIFYLNAMGWYRQAPGKERELVATISNGGSTNYADSVKGRFTISRDNAKNTVYLQMYSLKPEDTAVYYCAAASGGTVVGEGDYWGLGTQVTVSS,low polyreactivity
6,QVQLVESGGGLVQAGGSLRLTCAASGSIFYLYAMGWYRQAPGKETELVAAISRTGSTYADSVKGRFTISRDNAKKTVYLQMNSLKPEDTAVYYCAAEYRYYWYGTMNYWGQGTQVTVSS,low polyreactivity
7,QVQLVESGGGLVQAGGSLRLTCAASGSIFYPYAMGWYRQAPGKERELVAAISWSGGSTYYADSVKGRFTISRDNAKNTVYLQMKSLKPEDTAVYYCNAVGHWFYSSGRYYGDDYWGQGTQVTVSS,high polyreactivity
8,QVQLVESGGGLVQAGGSLRLTCAASGSIIWAYAKGWYRQAPGKERELVAAISSGGSTYYADSVKGRFTISRDNAKNIVYLQMNCLKPEDTPVFYCAASWSRRYYYWGQGTQVTVSS,high polyreactivity
9,QVQLVESGGGLVQAGGSLRLTCAASGSISFGYAMGWYRQAPGKERELVAAITWSTARTYYADSVKGRFTISRDNAKNTVYLQMNSLKPEDTAVYYCAKGGYWGQGTQVTVSS,high polyreactivity
10,QVQLVESGGGLVQAGGSLRLTCAASGSIVWYAMGSYRQATGKEREVVAAISRRGGSTYYADSVKGRFTISRDNAKNTVYLQSKSLKSEDTAVYYCADRPAREEYDYWGQGTQVTVSS,high polyreactivity
11,QVQLVESGGGLVQAGGSLRLTCAASGSTFADYAMGWYRQAPGKERELVAAITGDGGNTYYADSVKGRFTISRDNAKNTVYLQMNSLKPEDTAVYYCAAEHETGAYYYWGLGTQVTVSS,high polyreactivity
12,QVQLVESGGGLVQAGGSLRLTCAASGSTFDTYAMGWYRQAPGKERELVAAISGSGVRTYYADSVKGRFTISRDNAKNTVYLQMNSLKPEDTAVYYCAARYPRRCGEYGYWGQGTQVTVSS,high polyreactivity
13,QVQLVESGGGLVQAGGSLRLTCAASGSTFKQNVMGWYRQAPGKERELVAAITSGGSTNYADSVKGRFTISRDNAKNTVYLQMNSLKPEDTAVYYCNKDTSGIYLDDYWGQGTQVTVSS,low polyreactivity
14,QVQLVESGGGLVQAGGSLRLTCAASGSTFPRYAMGWYRQAPGKEREFVAVIWSGGSTYYADSVKGRFTISRDNAKNTVYLQMNSLKPEDSAVYYCAAEYHTLSKYSGYATHDYWGQGTQVTVSS,low polyreactivity
15,QVQLVESGGGLVQAGGSLRLTCAASGSTFSKNAMGWYRQATGNERELVASISSSVGSTYYSDSVKGRFTISRDNAKNTVYLQMNSLKPEDTAVYYCATRRGRGYYYWGQGTQVTVSS,high polyreactivity
16,QVQLVESGGGLVQAGGSLRLTCAASGSTFWAYAMGWYRQAPGKERELVAAITTGGGRTFYADSVKGRFTISRDNAKNTVYLQMNSLIPEDTAVYYCAAVSQSYRMYYWGQGTQVTVSS,low polyreactivity
17,QVQLVESGGGLVQAGGSLRLTCAASGSTFYIYAMGWDRQAPGKEAEFVAAIDFSGSSTYADSVKGRFTISRDNAKNTVYLQMNSLKPEDTAVYYCAAYQIYQYDGPYDYWGEGTQVTVSS,low polyreactivity
18,QVQLVESGGGLVQAGGSLRLTCAASGSTFYPYAMGWYRQAPGKERELVAAISSGGSTYYADSVKGRFTISRDNAKNSVYLQMNSLKPEDTAVYYCAADFYYAYYWGQGTQVTVSS,low polyreactivity
19,QVQLVESGGGLVQAGGSLRLTCAASGSTLYSYAMGWYRPAPGKERELVAAISKSGGRTYYADSVKGRFTISRDNAKISVYLEMNSLKPEDTAVYYCAGREKYTPALEVEYWGQGTQVTVSS,high polyreactivity
20,QVQLVESGGGLVQAGGSLRLTCAASGSTYLNYAMGWYRQAPGKERELVAAITSGGRTYYADSVKGRFTISRDNAKNTVYLQMNSLKPEDTAVYYCAKVSYRYGLYDYWGQGTQVTVSS,high polyreactivity
